Target: pFAST_(99-114)–FRB–pFAST_(1-98)
Assay: split reporter

FKBP–pFAST_(115-125)
percent complementation at 5 μM HBR-2,5DM without rapamycin: < 6.5%

— PMC12307597
